Laboratory results from patent publication US20110105393A1, “METHODS FOR PROMOTING STEM CELL PROLIFERATION AND SURVIVAL” (priority 2007, published 2011).

B1: Ang-1: human angiopoietin-1 (923-AN) from R&D (protein, UniProt Q15389 16-498, looked up)
Angiopoietin-1: HIGCSNQRRSPENSGRRYNRIQHGQCAYTFILPEHDGNCRESTTDQYNTNALQRDAPHVEPDFSSQKLQHLEHVMENYTQWLQKLENYIVENMKSEMAQIQQNAVQNHTATMLEIGTSLLSQTAEQTRKLTDVETQVLNQTSRLEIQLLENSLSTYKLEKQLLQQTNEILKIHEKNSLLEHKILEMEGKHKEELDTLKEEKENLQGLVTRQTYIIQELEKQLNRATTNNSVLQKQQLELMDTVHNLVNLCTKEGVLLKGGKREEEKPFRDCADVYQAGFNKSGIYTIYINNMPEPKKVFCNMDVNGGGWTVIQHREDGSLDFQRGWKEYKMGFGNPSGEYWLGNEFIFAITSQRQYMLRIELMDWEGNRAYSQYDRFHIGNEKQNYRLYLKGHTGTAGKQSSLILHGADFSTKDADNDNCMCKCALMLTGGWWFDACGPSNLNGMFYTAGQNHGKLNGIKWHYFKGPSYSLRSTTMMIRPLDF
B2: CNTF: CNTF (577-NT) from R&D; induces differentiation of NSCs (protein, UniProt P26441 1-200, looked up)
Ciliary neurotrophic factor: MAFTEHSPLTPHRRDLCSRSIWLARKIRSDLTALTESYVKHQGLNKNINLDSADGMPVASTDQWSELTEAERLQENLQAYRTFHVLLARLLEDQQVHFTPTEGDFHQAIHTLLLQVAAFAYQIEELMILLEYKIPRNEADGMPINVGDGGLFEKKLWGLKVLQELSQWTVRSIHDLRFISSHQTGIPARGSHYIANNKKM

Tests used:
Notch receptor = Notch receptor cleavage (activation) in NSC cultures; format: cell-based, mouse; conditions: effect of inhibitor; DAPT 1 μM
Experimental: (§1) Cell culture: E13.5 cortical embryonic mouse CNS stem cells were grown as previously described (Johe, et al., Genes Dev 10, 3129-40, 1996). Cells were expanded in serum-free DMEM/F12 medium with N2 supplement and FGF2 (20 ng/ml) for 5 days under 5% oxygen conditions and were re-plated fresh or from frozen stocks at 1,000-10,000 cells per cm^2. FGF2 was included throughout the studies, unless otherwise stated. Adult rat (3-6 months old) or adult mouse (2-4 months old) SVZ NSC cultures were grown in the same medium as the fetal cultures.
(§2) Pharmacological treatments: Unless otherwise stated, the following concentrations were used: Dll4 and Ang-2 (in vitro, 500 ng/ml; in vivo 12.5 μg as a single injection), FGF2 (in vitro, 20 ng/ml), JAK inhibitor (in vitro, 200 nM; in vivo, 250 ng as a single injection), insulin (in vitro, 25 μg/ml; in vivo, 40 μg as a single injection), DAPT (1 μM), Fluorogold (0.5 μg). For the survival assays, compounds were added daily and Notch ligands every 2 days for the duration of the experiment. For the effects of kinase inhibitors on Notch activation, cells were pre-incubated for 1 h prior to Notch activation.
It was previously shown that in NSCs Notch activation leads to rapid phosphorylation of Akt (Androutsellis-Theotokis, A. et al., Nature 442, 823-6, 2006), a mediator of insulin signalling (Cantley, Science 296, 1655-7, 2002). […] Activation of the Notch receptor by addition of insulin or Dll4 was inhibited by DAPT, a γ-secretase inhibitor that blocks Notch cleavage. […] Insulin maintained STAT3-Ser727 phosphorylation levels, and acutely (1-h) induced it following a 16-h insulin withdrawal phase (FIG. 1c).

insulin/IGF-1 receptors = assay: Insulin/IGF-1 receptor activation in NSC cultures; format: cell-based, mouse; conditions: effect of inhibitor; DAPT 1 μM
Experimental: as §1, §2
It was previously shown that in NSCs Notch activation leads to rapid phosphorylation of Akt (Androutsellis-Theotokis, A. et al., Nature 442, 823-6, 2006), a mediator of insulin signalling (Cantley, Science 296, 1655-7, 2002). […]

Akt = Akt phosphorylation in NSC cultures; format: cell-based, mouse; conditions: 0.5 μg/ml (FIG. 2a)
Experimental: as §1
(§3) Fetal NSCs in culture express Ang-1, and treatment (2 days) with Dll4 maintained it whereas CNTF reduced it. Ang-2 expression was maintained under these conditions. […] Ang-2 induced mTOR and STAT3-S727 phosphorylation, unlike Ang-1 (FIG. 2a). Ang-1, however, induced Akt phosphorylation.

NSC cultures = assay: Incidence of Tie-2 spikes in NSC cultures; format: cell-based; conditions: for % of cells with at least one spike: NSC cultures; for spike number: thirty minutes after treatment
Experimental: A protrusion of the cell membrane was identified in neuronal stem cells (NSCs) when the Tie-2 receptor is concentrated. This can be visualized using antibodies that bind Tie-2. The protrusion was termed a spike. These spikes appear 30 minutes after treatment with pharmaceutical agents. […] increase spike number thirty minutes after treatment. […] Thus, a novel sub-cellular structure ahs been identified. These structures could regulate the responsiveness of cells to treatments.
Thus, a novel protrusion of the cell membrane in NSCs has been identified where the Tie-2 receptor is concentrated. This can be easily visualized using an antibody against Tie-2 that recognizes a particular epitope. […] Indeed, the spike is devoid of actin filaments or tubulin. The spikes can be detected within thirty minutes of contacting the cultures with an the factors. Thus, the spikes provide a rapid assay for the effect of pharmacologic agents.

mTOR = mTOR phosphorylation in NSC cultures (Western blot); format: cell-based, mouse; conditions: NSC cultures, 0.5 μg/ml (FIG. 2a, Example 3)
Experimental: as §1, §3
Three characterized Tie-2 receptor antibodies were used to determine if the Tie-2 receptor was expressed in the immature neural precursor cells found in the SVZ of the adult brain. When ligand is bound, the Tie-2 receptor becomes phosphorylated. An antibody that recognizes the activated receptor (RnD Systems, AF2720) and another antibody that binds to a distinct site (Santa Cruz, sc-324) identified many positive cells in the subventricular zone of the adult rat brain. In regions that were more distant from the ventricle, Tie-2 was expressed predominantly on blood vessels and endothelial cells reacted with antibodies against the activated receptor. Precursor cells that proliferate in vitro can be readily derived from the fetal and adult brain. The homogeneity of these cell populations in attached culture and their potential to generate neurons and glia is supported by clonal analysis. […] This colony number assay measured the survival of precursor cells that could differentiate into neurons and glia (See, Table 1).

Hes3 = Hes3 protein immuno-staining in fetal NSC cultures; format: cell-based, mouse; conditions: 2 day treatment
Experimental: as §1
Hes3 mRNA is present in fetal NSC cultures under conditions that support their self-renewal but CNTF-induced differentiation (Bonni, A. et al., Science 278, 477-83, 1997; Rajan & McKay, J Neurosci 18, 3620-9, 1998): downregulates Hes3 message (Androutsellis-Theotokis, A. et al., Nature 442, 823-6, 2006). Knockout studies have shown a role of Hes3 in self-renewal (Hatakeyama, J. et al., Development 131, 5539-50, 2004). It was investigated if Hes3 mediates stem cell functions in vitro to assess its use as a functional NSC marker. Fetal (E13.5) cortical tissue was dissociated and magnetic sorting was used to isolate a cell population that expressed AC133, an established marker of NSCs (Uchida, N. et al., Proc Natl Acad Sci USA 97, 14720-5, 2000). […]

Ang-1 = Ang-1 expression in fetal NSC cultures; format: cell-based, mouse; conditions: fetal NSCs in culture, treatment 2 days
Experimental: as §1, §3

| Molecule | Activation of the Notch receptor by addition of insulin or Dll4 (Notch receptor) | Activation of the insulin/IGF-1 receptors by insulin treatment (insulin/IGF-1 receptors) | Akt phosphorylation (Akt) | % of cells with at least one spike (NSC cultures) | spike number (NSC cultures) | mTOR phosphorylation (mTOR) | Hes3 protein expression (Hes3) | Ang-1 expression (Ang-1) |
| --- | --- | --- | --- | --- | --- | --- | --- | --- |
| C[C@H](NC(=O)Cc1cc(F)cc(F)c1)C(=O)N[C@H](C(=O)OC(C)(C)C)c1ccccc1 [DAPT, reference compound] | inhibited | partly blocked |  |  |  |  |  |  |
| B1 |  |  | induced | 0.8% | do not increase | inhibits |  |  |
| B2 |  |  |  | 0.8% | do not increase |  | lost | reduced |
